Experimental findings from publication PMC3163439 (Molecular cell, 2009) are described below.

In experiment [1] the target is BAX, in vitro translated (UniProt Q07813). In words: co-IP.
The target in experiment [2] is BAX, in vitro translated (UniProt Q07813 1-192). The experiment can be described thus: co-IP.
BAX, in vitro translated (UniProt Q07813 1-192), sequence (Q07813 whole entry): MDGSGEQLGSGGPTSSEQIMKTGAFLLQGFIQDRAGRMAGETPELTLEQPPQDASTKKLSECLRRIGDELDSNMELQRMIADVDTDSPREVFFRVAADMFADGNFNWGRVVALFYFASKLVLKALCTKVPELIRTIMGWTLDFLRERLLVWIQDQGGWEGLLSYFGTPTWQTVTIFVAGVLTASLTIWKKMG

BAX, in vitro translated (UniProt Q07813), sequence (Q07813 whole entry): as above

“truncated BID (tBID), in vitro translated (domain or fragment)” showed a stoichiometry N with BAX, in vitro translated [1] of 1.

B1: PUMA, in vitro translated (natural protein, UniProt Q99ML1 1-193, looked up)
chain: MARARQEGSSPEPVEGLARDSPRPFPLGRLMPSAVSCSLCEPGLPAAPAAPALLPAAYLCAPTAPPAVTAALGGPRWPGGHRSRPRGPRPDGPQPSLSPAQQHLESPVPSAPEALAGGPTQAAPGVRVEEEEWAREIGAQLRRMADDLNAQYERRRQEEQHRHRPSPWRVMYNLFMGLLPLPRDPGAPEMEPN
On to B1, for which the “stoichiometry N” value with BAX, in vitro translated [2] is roughly 1.

B2: BIM, in vitro translated (natural protein, UniProt O54918 1-196, looked up)
chain: MAKQPSDVSSECDREGGQLQPAERPPQLRPGAPTSLQTEPQGNPDGEGDRCPHGSPQGPLAPPASPGPFATRSPLFIFVRRSSLLSRSSSGYFSFDTDRSPAPMSCDKSTQTPSPPCQAFNHYLSAMASIRQSQEEPEDLRPEIRIAQELRRIGDEFNETYTRRVFANDYREAEDHPQMVILQLLRFIFRLVWRRH
As for B2, in the experiment with BAX, in vitro translated [2], the “stoichiometry N” value is roughly 1.
